This assay has as its target T1, Haptoglobin (Homo sapiens, UniProt P00738).
T1 chain: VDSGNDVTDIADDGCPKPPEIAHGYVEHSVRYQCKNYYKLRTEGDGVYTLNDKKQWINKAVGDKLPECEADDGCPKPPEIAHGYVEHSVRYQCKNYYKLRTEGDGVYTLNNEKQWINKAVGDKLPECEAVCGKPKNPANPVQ
Nature of the assay: SPR. (In SPR one partner is held on a chip, and binding of the other changes the refractive index at the surface.)

B1: Hemoglobin (protein)
chain 1: not shown
chain 2: not shown
modifications: dextran (10 kDa)-linker at beta Cys93
Take B1: binding was characterised by a dissociation constant (Kd) of 0.823 nM.

The values are drawn from PMC3353419 (2013).
